Earlier results, collected in patent publication US7776891B2, “VLA-4 antagonists” (Merck Sharp & Dohme Corp., priority 2004, dated 2010).

Molecular target: T1, VLA-4 (Homo sapiens, UniProt P13612)
T1 construct: host or cells: circulating VLA-4-bearing leukocytes of trial subjects (endogenous)
Settings: early clinical trials

lymphocytosis (a surrogate marker for blockade of VLA-4 function): observed
receptor occupancy: > 80%
Substance: natalizumab: humanized monoclonal antibody against α4 (Antegren®, Elan/Biogen)
